The assay has as its target T1, GST-clathrin 1–494 (human, UniProt Q00610 1-494).
T1 construct: clathrin, human, residues 1-494, in pGEX-6P1; source: E. coli BL21, purified (glutathione-Sepharose 4B, eluted with GSH); not shown: GST, N-terminal, kept
T1 sequence (looked up): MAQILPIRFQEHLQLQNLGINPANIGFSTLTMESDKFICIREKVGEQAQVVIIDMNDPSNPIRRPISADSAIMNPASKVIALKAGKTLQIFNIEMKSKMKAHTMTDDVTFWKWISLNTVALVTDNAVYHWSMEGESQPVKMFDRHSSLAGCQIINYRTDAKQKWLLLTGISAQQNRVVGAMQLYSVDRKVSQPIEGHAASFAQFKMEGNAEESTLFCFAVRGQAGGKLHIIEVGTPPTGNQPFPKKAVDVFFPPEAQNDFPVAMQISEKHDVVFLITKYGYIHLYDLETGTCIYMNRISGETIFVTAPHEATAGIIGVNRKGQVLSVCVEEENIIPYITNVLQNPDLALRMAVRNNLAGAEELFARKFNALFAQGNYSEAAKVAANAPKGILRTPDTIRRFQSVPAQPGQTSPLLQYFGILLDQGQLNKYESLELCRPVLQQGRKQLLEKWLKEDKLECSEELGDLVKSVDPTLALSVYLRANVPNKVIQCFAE
As to the kind of experiment: pull-down; β-arrestin-1-F2Y mutants (300 nM) incubated with equal concentrations of GST-clathrin and V2R-phospho-peptide (V2Rpp), or without peptide; pulled down with GST beads; bound β-arrestin-1 detected by western blot with a β-arrestin-1 antibody. The settings on record: both partners purified. (A western blot detects proteins with antibodies after separation by electrophoresis.)

B1: β-arrestin-1-L338-F2Y (natural protein, bovine, UniProt P17870 1-418, looked up)
chain: MGDKGTRVFKKASPNGKLTVYLGKRDFVDHIDLVEPVDGVVLVDPEYLKERRVYVTLTCAFRYGREDLDVLGLTFRKDLFVANVQSFPPAPEDKKPLTRLQERLIKKLGEHAYPFTFEIPPNLPCSVTLQPGPEDTGKACGVDYEVKAFCAENLEEKIHKRNSVRLVIRKVQYAPERPGPQPTAETTRQFLMSDKPLHLEASLDKEIYYHGEPISVNVHVTNNTNKTVKKIKISVRQYADICLFNTAQYKCPVAMEEADDTVAPSSTFCKVYTLTPFLANNREKRGLALDGKLKHEDTNLASSTLLREGANREILGIIVSYKVKVKLVVSRGGLLGDYASSDVAVELPFTLMHPKPKEEPPHREVPEHETPVDTNLIELDTNDDDIVFEDFARQRLKGMKDDKEEEEDGTGSPRLNDR
modifications: 3,5-difluorotyrosine (F2Y) at 338
notes: β-arrestin-1, bovine, full-length cDNA in pET22b, amber codon at L338 read as F2Y; also called F2Y-L338; source: E. coli BL21 (DE3) with pEVOL-F2YRS and F2Y in the medium, purified (Ni-NTA, gel filtration)
For the molecule B1, the binding result is “binds”.

B2: β-arrestin-1-K11-F2Y (natural protein, bovine, UniProt P17870 1-418, looked up)
chain: MGDKGTRVFKYASPNGKLTVYLGKRDFVDHIDLVEPVDGVVLVDPEYLKERRVYVTLTCAFRYGREDLDVLGLTFRKDLFVANVQSFPPAPEDKKPLTRLQERLIKKLGEHAYPFTFEIPPNLPCSVTLQPGPEDTGKACGVDYEVKAFCAENLEEKIHKRNSVRLVIRKVQYAPERPGPQPTAETTRQFLMSDKPLHLEASLDKEIYYHGEPISVNVHVTNNTNKTVKKIKISVRQYADICLFNTAQYKCPVAMEEADDTVAPSSTFCKVYTLTPFLANNREKRGLALDGKLKHEDTNLASSTLLREGANREILGIIVSYKVKVKLVVSRGGLLGDLASSDVAVELPFTLMHPKPKEEPPHREVPEHETPVDTNLIELDTNDDDIVFEDFARQRLKGMKDDKEEEEDGTGSPRLNDR
modifications: 3,5-difluorotyrosine (F2Y) at 11
notes: β-arrestin-1, bovine, full-length cDNA in pET22b, amber codon at K11 read as F2Y; source: E. coli BL21 (DE3) with pEVOL-F2YRS and F2Y in the medium, purified (Ni-NTA, gel filtration)
With B2, the binding result is reported as “binds”.

B3: β-arrestin-1-N375-F2Y (natural protein, bovine, UniProt P17870 1-418, looked up)
chain: MGDKGTRVFKKASPNGKLTVYLGKRDFVDHIDLVEPVDGVVLVDPEYLKERRVYVTLTCAFRYGREDLDVLGLTFRKDLFVANVQSFPPAPEDKKPLTRLQERLIKKLGEHAYPFTFEIPPNLPCSVTLQPGPEDTGKACGVDYEVKAFCAENLEEKIHKRNSVRLVIRKVQYAPERPGPQPTAETTRQFLMSDKPLHLEASLDKEIYYHGEPISVNVHVTNNTNKTVKKIKISVRQYADICLFNTAQYKCPVAMEEADDTVAPSSTFCKVYTLTPFLANNREKRGLALDGKLKHEDTNLASSTLLREGANREILGIIVSYKVKVKLVVSRGGLLGDLASSDVAVELPFTLMHPKPKEEPPHREVPEHETPVDTYLIELDTNDDDIVFEDFARQRLKGMKDDKEEEEDGTGSPRLNDR
modifications: 3,5-difluorotyrosine (F2Y) at 375
notes: β-arrestin-1, bovine, full-length cDNA in pET22b, amber codon at N375 read as F2Y; also called F2Y-N375; source: E. coli BL21 (DE3) with pEVOL-F2YRS and F2Y in the medium, purified (Ni-NTA, gel filtration)
Turning to B3, the binding result is on record as “binds”.

B4: β-arrestin-1-K294-F2Y (natural protein, bovine, UniProt P17870 1-418, looked up)
chain: MGDKGTRVFKKASPNGKLTVYLGKRDFVDHIDLVEPVDGVVLVDPEYLKERRVYVTLTCAFRYGREDLDVLGLTFRKDLFVANVQSFPPAPEDKKPLTRLQERLIKKLGEHAYPFTFEIPPNLPCSVTLQPGPEDTGKACGVDYEVKAFCAENLEEKIHKRNSVRLVIRKVQYAPERPGPQPTAETTRQFLMSDKPLHLEASLDKEIYYHGEPISVNVHVTNNTNKTVKKIKISVRQYADICLFNTAQYKCPVAMEEADDTVAPSSTFCKVYTLTPFLANNREKRGLALDGKLYHEDTNLASSTLLREGANREILGIIVSYKVKVKLVVSRGGLLGDLASSDVAVELPFTLMHPKPKEEPPHREVPEHETPVDTNLIELDTNDDDIVFEDFARQRLKGMKDDKEEEEDGTGSPRLNDR
modifications: 3,5-difluorotyrosine (F2Y) at 294
notes: β-arrestin-1, bovine, full-length cDNA in pET22b, amber codon at K294 read as F2Y; source: E. coli BL21 (DE3) with pEVOL-F2YRS and F2Y in the medium, purified (Ni-NTA, gel filtration)
Turning to B4, the binding result is reported as “binds”.

B5: β-arrestin-1-T136-F2Y (natural protein, bovine, UniProt P17870 1-418, looked up)
chain: MGDKGTRVFKKASPNGKLTVYLGKRDFVDHIDLVEPVDGVVLVDPEYLKERRVYVTLTCAFRYGREDLDVLGLTFRKDLFVANVQSFPPAPEDKKPLTRLQERLIKKLGEHAYPFTFEIPPNLPCSVTLQPGPEDYGKACGVDYEVKAFCAENLEEKIHKRNSVRLVIRKVQYAPERPGPQPTAETTRQFLMSDKPLHLEASLDKEIYYHGEPISVNVHVTNNTNKTVKKIKISVRQYADICLFNTAQYKCPVAMEEADDTVAPSSTFCKVYTLTPFLANNREKRGLALDGKLKHEDTNLASSTLLREGANREILGIIVSYKVKVKLVVSRGGLLGDLASSDVAVELPFTLMHPKPKEEPPHREVPEHETPVDTNLIELDTNDDDIVFEDFARQRLKGMKDDKEEEEDGTGSPRLNDR
modifications: 3,5-difluorotyrosine (F2Y) at 136
notes: β-arrestin-1, bovine, full-length cDNA in pET22b, amber codon at T136 read as F2Y; also called F2Y-T136; source: E. coli BL21 (DE3) with pEVOL-F2YRS and F2Y in the medium, purified (Ni-NTA, gel filtration)
With B5, the binding result is reported as “binds”.

B6: β-arrestin-1-F277-F2Y (natural protein, bovine, UniProt P17870 1-418, looked up)
chain: MGDKGTRVFKKASPNGKLTVYLGKRDFVDHIDLVEPVDGVVLVDPEYLKERRVYVTLTCAFRYGREDLDVLGLTFRKDLFVANVQSFPPAPEDKKPLTRLQERLIKKLGEHAYPFTFEIPPNLPCSVTLQPGPEDTGKACGVDYEVKAFCAENLEEKIHKRNSVRLVIRKVQYAPERPGPQPTAETTRQFLMSDKPLHLEASLDKEIYYHGEPISVNVHVTNNTNKTVKKIKISVRQYADICLFNTAQYKCPVAMEEADDTVAPSSTFCKVYTLTPYLANNREKRGLALDGKLKHEDTNLASSTLLREGANREILGIIVSYKVKVKLVVSRGGLLGDLASSDVAVELPFTLMHPKPKEEPPHREVPEHETPVDTNLIELDTNDDDIVFEDFARQRLKGMKDDKEEEEDGTGSPRLNDR
modifications: 3,5-difluorotyrosine (F2Y) at 277
notes: β-arrestin-1, bovine, full-length cDNA in pET22b, amber codon at F277 read as F2Y; also called F2Y-F277; source: E. coli BL21 (DE3) with pEVOL-F2YRS and F2Y in the medium, purified (Ni-NTA, gel filtration)
As to B6, the binding result is recorded as “binds”.

The values are drawn from article PMC4569848 (Nature Communications, 2015).
